Data as given in PMC7498260, “The peroxisome counteracts oxidative stresses by suppressing catalase import via Pex14 phosphorylation” (eLife, 2020).

Target: Pex5L (Chinese hamster, ClPex5L) (Chinese hamster, UniProt Q920N5 1-640)
Experiment: pull-down; GST-Pex14 variants (2 μg) on glutathione-Sepharose beads incubated with Pex5L (2 μg) together with EGFP-PTS1 (4 μg) or HA-catalase (4 μg), 2 hr at 4°C, 50 mM Tris-HCl pH 7.5, 0.15 M NaCl, 1% Triton X-100, 10% glycerol; bound fraction by immunoblot, quantified and normalised by GST-Pex14
Conditions: both partners purified

binding result: binds
B1: HA-catalase (human) (enzyme)
chain: MADSRDPASDQMQHWKEQRAAQKADVLTTGAGNPVGDKLNVITVGPRGPLLVQDVVFTDEMAHFDRERIPERVVHAKGAGAFGYFEVTHDITKYSKAKVFEHIGKKTPIAVRFSTVAGESGSADTVRDPRGFAVKFYTEDGNWDLVGNNTPIFFIRDPILFPSFIHSQKRNPQTHLKDPDMVWDFWSLRPESLHQVSFLFSDRGIPDGHRHMNGYGSHTFKLVNANGEAVYCKFHYKTDQGIKNLSVEDAARLSQEDPDYGIRDLFNAIATGKYPSWTFYIQVMTFNQAETFPFNPFDLTKVWPHKDYPLIPVGKLVLNRNPVNYFAEVEQIAFDPSNMPPGIEASPDKMLQGRLFAYPDTHRHRLGPNYLHIPVNCPYRARVANYQRDGPMCMQDNQGGAPNYYPNSFGAPEQQPSALEHSIQYSGEVRRFNTANDDNVTQVRAFYVNVLNEEQRKRLCENIAGHLKDAQIFIQKKAVKNFTEVHPDYGSHIQALLDKYNAEKPKNAIHTFVQSGSHLAAREKANL
notes: catalase, human (HsCatalase); HA-Catalase amplified from pUcD3/HA-HsCatalase (Otera and Fujiki, 2012) and cloned into pGEX6P-1; The forward primer GST-HA-HsCatalase.BglFw starts with ATG GCT TAT CCA TAC GAC, i.e. the HA tag lies at the N-terminus of catalase; also called HA-HsCatalase; source: E. coli DH5α, GST fusion purified with glutathione-Sepharose beads, isolated by cleaving …
